According to publication PMC9352680, “A comprehensive thermodynamic model for RNA binding by the Saccharomyces cerevisiae Pumilio protein PUF4”:
Residue numbers refer to the chain shown, from its start. Names may count otherwise.

B1: Ic_S2_P4E.1_K4.1_C4.1_H4.1_A4.1_[A6C]_F4.1_[T8A]_[A9G]_T4.1 (ssRNA)
RNA: UUUGAUUAAUAUGAUAUCGUUCUUUCUUGUAUCUAGUUCUUUCUCGAUAUCAUAUUAAUCUUU
B2: Ic_S2_P4E.1_K4.1_C4.1_H4.1_A4.1_[T7C]_F4.1_[T8G]_[A9C]_T4.1 (ssRNA)
RNA: B1 RNA with C33A, U34C, A35G, G36C
B3: Ic_S2_P4E.1_K4.1_C4.1_H4.1_A4.1_[A6C]_F4.1_[T8C]_[A9T]_T4.1 (ssRNA)
RNA: B1 RNA with A35C, G36U
B4: Ic_S2_P4E.1_K4.1_C4.1_H4.1_A4.1_[A6T]_[T7C]_F4.1_[T8C]_[A9G]_T4.1 (ssRNA)
RNA: B1 RNA with C33U, U34C, A35C
B5: Ic_S2_P4E.1_K4.1_C4.1_H4.1_A4.1_F4.1_T4.1 (ssRNA)
RNA: B1 RNA with C33A, A35U, G36A
B6: Ic_S2_P4E.1_K4.1_C4.1_H4.1_A4.1_[A6T]_[T7A]_F4.1_[T8A]_[A9T]_T4.1 (ssRNA)
RNA: B1 RNA with C33U, U34A, G36U
B7: Ic_S2_P4E.1_K4.1_C4.1_H4.1_A4.1_[A6T]_[T7C]_F4.1_[T8G]_[A9T]_T4.1 (ssRNA)
RNA: B1 RNA with C33U, U34C, A35G, G36U
B8: Ic_S2_P4E.1_K4.1_C4.1_H4.1_A4.1_[A6T]_[T7C]_F4.1_[T8A]_[A9T]_T4.1 (ssRNA)
RNA: B1 RNA with C33U, U34C, G36U
B9: Ic_S2_P4E.1_K4.1_C4.1_H4.1_A4.1_[T7C]_F4.1_[T8C]_[A9C]_T4.1 (ssRNA)
RNA: B1 RNA with C33A, U34C, A35C, G36C
B10: Ic_S2_P4E.1_K4.1_C4.1_H4.1_A4.1_[T7C]_F4.1_[T8C]_[A9T]_T4.1 (ssRNA)
RNA: B1 RNA with C33A, U34C, A35C, G36U
B11: Ic_S2_P4E.1_K4.1_C4.1_H4.1_A4.1_[A6T]_[T7C]_F4.1_[T8A]_T4.1 (ssRNA)
RNA: B1 RNA with C33U, U34C, G36A
B12: Ic_S2_P4E.1_K4.1_C4.1_H4.1_A4.1_[A6C]_F4.1_[T8C]_[A9C]_T4.1 (ssRNA)
RNA: B1 RNA with A35C, G36C
B13: Ic_S2_P4E.1_K4.1_C4.1_H4.1_A4.1_[A6T]_[T7G]_F4.1_[T8G]_[A9C]_T4.1 (ssRNA)
RNA: B1 RNA with C33U, U34G, A35G, G36C
B14: Ic_S2_P4E.1_K4.1_C4.1_H4.1_A4.1_[A6C]_[T7A]_F4.1_[A9G]_T4.1 (ssRNA)
RNA: B1 RNA with U34A, A35U
B15: Ic_S2_P4E.1_K4.1_C4.1_H4.1_A4.1_[A6T]_[T7C]_F4.1_[T8C]_[A9C]_T4.1 (ssRNA)
RNA: B1 RNA with C33U, U34C, A35C, G36C
B16: Ic_S2_P4E.1_K4.1_C4.1_H4.1_A4.1_[A6T]_F4.1_[T8G]_[A9C]_T4.1 (ssRNA)
RNA: B1 RNA with C33U, A35G, G36C
B17: Ic_S2_P4E.1_K4.1_C4.1_H4.1_A4.1_[A6T]_[T7C]_F4.1_[A9C]_T4.1 (ssRNA)
RNA: B1 RNA with C33U, U34C, A35U, G36C
B18: Ic_S2_P4E.1_K4.1_C4.1_H4.1_A4.1_[A6T]_[T7C]_F4.1_[T8A]_[A9G]_T4.1 (ssRNA)
RNA: B1 RNA with C33U, U34C
B19: Ic_S2_P4E.1_K4.1_C4.1_H4.1_A4.1_[A6C]_F4.1_[T8G]_[A9T]_T4.1 (ssRNA)
RNA: B1 RNA with A35G, G36U
B20: Ic_S2_P4E.1_K4.1_C4.1_H4.1_A4.1_[A6T]_F4.1_[T8A]_[A9C]_T4.1 (ssRNA)
RNA: B1 RNA with C33U, G36C
B21: Ic_S2_P4E.1_K4.1_C4.1_H4.1_A4.1_[A6T]_[T7C]_F4.1_[T8A]_[A9C]_T4.1 (ssRNA)
RNA: B1 RNA with C33U, U34C, G36C
B22: Ic_S2_P4E.1_K4.1_C4.1_H4.1_A4.1_[A6C]_F4.1_[T8A]_[A9T]_T4.1 (ssRNA)
RNA: B1 RNA with G36U
B23: Ic_S2_P4E.1_K4.1_C4.1_H4.1_A4.1_[T7C]_F4.1_[T8A]_[A9T]_T4.1 (ssRNA)
RNA: B1 RNA with C33A, U34C, G36U
B24: Ic_S2_P4E.1_K4.1_C4.1_H4.1_A4.1_[T7C]_F4.1_[T8A]_[A9C]_T4.1 (ssRNA)
RNA: B1 RNA with C33A, U34C, G36C
B25: Ic_S2_P4E.1_K4.1_C4.1_H4.1_A4.1_[A6T]_[T7G]_F4.1_[T8C]_[A9C]_T4.1 (ssRNA)
RNA: B1 RNA with C33U, U34G, A35C, G36C
B26: Ic_S2_P4E.1_K4.1_C4.1_H4.1_A4.1_[A6T]_[T7G]_F4.1_[T8C]_[A9T]_T4.1 (ssRNA)
RNA: B1 RNA with C33U, U34G, A35C, G36U
B27: Ic_S2_P4E.1_K4.1_C4.1_H4.1_A4.1_[A6C]_[T7A]_F4.1_[A9T]_T4.1 (ssRNA)
RNA: B1 RNA with U34A, A35U, G36U

molecular target: T1, PUF4 RNA-binding domain (Saccharomyces cerevisiae, UniProt P25339 537-888); test: Mg; RNA-MaP; 20 mM Na-HEPES pH 7.4, 30 mM KOAc, 0.75 mM MgCl2, 0.1% Tween-20, 5% glycerol, 0.1 mg/mL BSA, 2 mM DTT; 25 C; 0.0125-409.6 nM protein; details: tags: N-His6-TEV cleaved; C-SNAP kept, Cy3B-labelled; label: tethered on chip by stalled RNA polymerase
T1 sequence: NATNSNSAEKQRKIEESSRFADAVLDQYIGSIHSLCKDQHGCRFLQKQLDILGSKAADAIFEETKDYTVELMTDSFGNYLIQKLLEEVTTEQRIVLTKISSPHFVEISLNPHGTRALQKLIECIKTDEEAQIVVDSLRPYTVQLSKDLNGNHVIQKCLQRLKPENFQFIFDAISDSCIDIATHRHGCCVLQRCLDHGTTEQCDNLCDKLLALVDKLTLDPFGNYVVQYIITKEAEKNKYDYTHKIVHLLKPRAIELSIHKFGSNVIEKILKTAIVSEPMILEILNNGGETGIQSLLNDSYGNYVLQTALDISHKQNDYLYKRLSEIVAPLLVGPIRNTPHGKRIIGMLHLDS

Question: With B1 as the binder, how does the Kd read?
Answer: 32.9 nM

Question: With B2 as the binder, how does the Kd read?
Answer: 55.7 nM

Question: Which Kd does the source give for B3 here?
Answer: 17.7 nM

Question: How did the Kd turn out when B4 was run?
Answer: 168 nM

Question: B5 was tested. Which Kd did it give?
Answer: 0.224 nM

Question: For B6, which Kd is on record?
Answer: 78.2 nM

Question: Which Kd does the source give for B7 here?
Answer: 112 nM

Question: How did the Kd turn out when B8 was run?
Answer: 89.9 nM

Question: With B9 as the binder, how does the Kd read?
Answer: 31.3 nM

Question: How did the Kd turn out when B10 was run?
Answer: 15.8 nM

Question: For B11, which Kd is on record?
Answer: 201 nM

Question: Which Kd does the source give for B12 here?
Answer: 28.4 nM

Question: For B13, which Kd is on record?
Answer: > 2300 nM

Question: Which Kd does the source give for B14 here?
Answer: 4.75 nM

Question: B15 was tested. Which Kd did it give?
Answer: 162 nM

Question: How did the Kd turn out when B16 was run?
Answer: 195 nM

Question: With B17 as the binder, how does the Kd read?
Answer: 12.7 nM

Question: Which Kd does the source give for B18 here?
Answer: 350 nM

Question: How did the Kd turn out when B19 was run?
Answer: 17.9 nM

Question: Which Kd does the source give for B20 here?
Answer: 106 nM

Question: Which Kd does the source give for B21 here?
Answer: 595 nM

Question: For B22, which Kd is on record?
Answer: 7.99 nM

Question: For B23, which Kd is on record?
Answer: 16.4 nM

Question: Which Kd does the source give for B24 here?
Answer: 60.4 nM

Question: For B25, which Kd is on record?
Answer: 645 nM

Question: How did the Kd turn out when B26 was run?
Answer: 536 nM

Question: For B27, which Kd is on record?
Answer: 3.46 nM

Question: Which Kd does the source give for UCUCUUUGUAUAUAUUCUCUU (ssRNA) [Ic_S1_P4E.1_K4.1_C4.1_H4.1_A4.1_F4.1_[T8A]_[A9T]_T4.1] here?
Answer: 3.56 nM

Question: For UCUCUUUGUAUAUCCUCUCUU (ssRNA) [Ib_S1_P4E.1_K4.1_C4.1_H4.1_A4.1_F4.1_[T8C]_[A9C]_T4.1], which Kd is on record?
Answer: 18.9 nM
